The koff is the rate constant with which the complex falls apart. Higher therefore signals a short-lived complex.

human interleukin 12 (p70 heterodimer of p35 and p40) (human), sequence (P29459 23-219, chain 1 of 2): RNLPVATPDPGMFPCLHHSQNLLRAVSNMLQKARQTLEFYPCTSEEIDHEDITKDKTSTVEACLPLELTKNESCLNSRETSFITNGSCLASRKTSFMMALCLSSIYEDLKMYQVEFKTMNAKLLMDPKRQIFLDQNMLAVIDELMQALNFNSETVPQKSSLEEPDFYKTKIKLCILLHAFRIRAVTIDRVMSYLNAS
human interleukin 12 (p70 heterodimer of p35 and p40) (human), sequence (P29460 23-328, chain 2 of 2, further chain): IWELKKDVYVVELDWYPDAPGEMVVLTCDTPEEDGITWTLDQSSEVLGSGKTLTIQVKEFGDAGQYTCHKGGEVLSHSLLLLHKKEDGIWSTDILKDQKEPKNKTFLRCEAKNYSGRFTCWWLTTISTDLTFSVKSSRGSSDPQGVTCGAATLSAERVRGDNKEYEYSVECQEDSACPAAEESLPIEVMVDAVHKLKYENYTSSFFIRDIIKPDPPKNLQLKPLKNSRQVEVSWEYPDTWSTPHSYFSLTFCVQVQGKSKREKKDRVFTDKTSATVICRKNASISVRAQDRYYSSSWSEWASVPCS

The first test deals with human interleukin 12 (recombinant human IL-12, p70 heterodimer) (human) (UniProt P29459). Description: cell-based or functional assay.
human interleukin 12 (recombinant human IL-12, p70 heterodimer) (human), sequence (P29459 23-219, chain 1 of 2): as the sequence (P29459 23-219, chain 1 of 2) above
human interleukin 12 (recombinant human IL-12, p70 heterodimer) (human), sequence (P29460 23-328, chain 2 of 2, further chain): as the sequence (P29460 23-328, chain 2 of 2, further chain) above
As for Y61-L94F (antibody), the PHA assay IC50 is 0.06 nM.

Turning to Y61-L94N (antibody), the PHA assay IC50 is 0.08 nM.

Another test has as its target human interleukin 12 (p70 heterodimer of p35 and p40) (human) (UniProt P29459). Description: SPR (BIAcore), off-rate.
Take “SEQ ID NO: 385 (Y61, Y at H56) (antibody)”: the koff worked out at 0.00039 s⁻¹.

Regarding “SEQ ID NO: 386 (Y61, H at H56) (antibody)”, the koff is 0.00042 s⁻¹.

In turn, “SEQ ID NO: 388 (Y61, T at H56) (antibody)” yielded an off-rate constant (koff) of 0.000235 s⁻¹.

As for “SEQ ID NO: 389 (Y61, G at H56) (antibody)”, the koff was determined as 0.000272 s⁻¹.

“SEQ ID NO: 390 (Y61, M at H56) (antibody)” gave a koff of 0.000383 s⁻¹.

Substance “SEQ ID NO: 391 (Y61, L at H56) (antibody)” had a koff of 0.000264 s⁻¹.

As for “SEQ ID NO: 392 (Y61, I at H56) (antibody)”, the koff is 0.000169 s⁻¹.

The substance “SEQ ID NO: 393 (Y61, P at H56) (antibody)” gave a koff of 0.000299 s⁻¹.

“SEQ ID NO: 394 (Y61, F at H56) (antibody)” came in with an off-rate (koff) of 0.000345 s⁻¹.

For “SEQ ID NO: 395 (Y61, E at H58) (antibody)”, the koff amounted to 0.000416 s⁻¹.

In turn, “SEQ ID NO: 396 (Y61, S at H58) (antibody)” showed a koff of 0.000941 s⁻¹.

“SEQ ID NO: 398 (Y61, N at H58) (antibody)” came in with an off-rate (koff) of 0.000831 s⁻¹.

Take “SEQ ID NO: 399 (Y61, V at H58) (antibody)”: the koff stood at 0.000524 s⁻¹.

“SEQ ID NO: 400 (Y61, L at H58) (antibody)” registered a koff of 0.00073 s⁻¹.

“SEQ ID NO: 401 (Y61, I at H58) (antibody)” gave a koff of 0.000657 s⁻¹.

With “SEQ ID NO: 402 (Y61, P at H58) (antibody)”, the off-rate (koff) amounted to 0.000628 s⁻¹.

On to “SEQ ID NO: 403 (Y61, F at H58) (antibody)”, for which the koff was 0.000794 s⁻¹.

Turning to “SEQ ID NO: 404 (Y61, E at H95) (antibody)”, the koff is 0.00231 s⁻¹.

“SEQ ID NO: 405 (Y61, S at H95) (antibody)” showed a koff of 0.00193 s⁻¹.

With “SEQ ID NO: 407 (Y61, K at H95) (antibody)”, the koff is 0.00228 s⁻¹.

“SEQ ID NO: 409 (Y61, T at H95) (antibody)” came in with a koff of 0.00202 s⁻¹.

The substance “SEQ ID NO: 410 (Y61, A at H95) (antibody)” returned a koff of 0.0015 s⁻¹.

On to “SEQ ID NO: 411 (Y61, L at H95) (antibody)”, for which the koff turned out to be 0.00147 s⁻¹.

With “SEQ ID NO: 412 (Y61, P at H95) (antibody)”, the koff turned out to be 0.00471 s⁻¹.

“SEQ ID NO: 413 (Y61, F at H95) (antibody)” came in with a koff of 0.00514 s⁻¹.

For “SEQ ID NO: 414 (Y61, D at H96) (antibody)”, the off-rate (koff) was determined as 0.00224 s⁻¹.

“SEQ ID NO: 415 (Y61, C at H96) (antibody)” registered a koff of 0.000242 s⁻¹.

In turn, “SEQ ID NO: 416 (Y61, H at H96) (antibody)” had a koff of 0.000237 s⁻¹.

Take “SEQ ID NO: 417 (Y61, R at H96) (antibody)”: the koff is 0.000982 s⁻¹.

For the substance “SEQ ID NO: 421 (Y61, M at H96) (antibody)”, the koff came to 0.00204 s⁻¹.

Take “SEQ ID NO: 423 (Y61, I at H96) (antibody)”: the koff came to 0.00208 s⁻¹.

Turning to “SEQ ID NO: 424 (Y61, P at H96) (antibody)”, the off-rate (koff) turned out to be 0.00129 s⁻¹.

Turning to “SEQ ID NO: 425 (Y61, W at H96) (antibody)”, the koff was 0.00197 s⁻¹.

In turn, “SEQ ID NO: 426 (Y61, D at H97) (antibody)” came in with a koff of 0.00202 s⁻¹.

“SEQ ID NO: 428 (Y61, Y at H97) (antibody)” registered a dissociation rate constant (koff) of 0.00273 s⁻¹.

“SEQ ID NO: 429 (Y61, H at H97) (antibody)” gave a koff of 0.00191 s⁻¹.

“SEQ ID NO: 431 (Y61, N at H97) (antibody)” had a koff of 0.00221 s⁻¹.

Substance “SEQ ID NO: 433 (Y61, G at H97) (antibody)” displayed an off-rate (koff) of 0.00229 s⁻¹.

“SEQ ID NO: 434 (Y61, A at H97) (antibody)” showed a koff of 0.00143 s⁻¹.

Regarding “SEQ ID NO: 435 (Y61, I at H97) (antibody)”, the koff came out at 0.00208 s⁻¹.

Substance “SEQ ID NO: 436 (Y61, P at H97) (antibody)” came in with a koff of 0.003 s⁻¹.

Substance “SEQ ID NO: 437 (Y61, W at H97) (antibody)” yielded a koff of 0.00239 s⁻¹.

For “SEQ ID NO: 438 (Y61, F at H97) (antibody)”, the koff was determined as 0.0018 s⁻¹.

On to “SEQ ID NO: 440 (Y61, R at H98) (antibody)”, for which the off-rate (koff) came out at 0.00034 s⁻¹.

As for “SEQ ID NO: 441 (Y61, T at H98) (antibody)”, the koff came out at 0.000227 s⁻¹.

“SEQ ID NO: 442 (Y61, A at H98) (antibody)” yielded a koff of 0.000673 s⁻¹.

Consider “SEQ ID NO: 443 (Y61, V at H98) (antibody)”, for which the koff came to 0.000293 s⁻¹.

“SEQ ID NO: 445 (Y61, I at H98) (antibody)” registered a koff of 0.000343 s⁻¹.

Substance “SEQ ID NO: 448 (Y61, S at H101) (antibody)” came in with an off-rate (koff) of 0.000449 s⁻¹.

“SEQ ID NO: 450 (Y61, H at H101) (antibody)”: the koff stood at 0.00327 s⁻¹.

“SEQ ID NO: 451 (Y61, R at H101) (antibody)” came in with a koff of 0.0011 s⁻¹.

“SEQ ID NO: 452 (Y61, N at H101) (antibody)” displayed a dissociation rate constant (koff) of 0.00223 s⁻¹.

Regarding “SEQ ID NO: 453 (Y61, G at H101) (antibody)”, the koff was found to be 0.00375 s⁻¹.

In the case of “SEQ ID NO: 454 (Y61, A at H101) (antibody)”, the koff came out at 0.00106 s⁻¹.

“SEQ ID NO: 455 (Y61, V at H101) (antibody)” displayed a koff of 0.00163 s⁻¹.

The substance “SEQ ID NO: 456 (Y61, I at H101) (antibody)” registered a koff of 0.00162 s⁻¹.

Take “SEQ ID NO: 457 (Y61, S at H102) (antibody)”: the off-rate constant (koff) was 0.000325 s⁻¹.

“SEQ ID NO: 458 (Y61, H at H102) (antibody)” had a koff of 0.00018 s⁻¹.

Substance “SEQ ID NO: 459 (Y61, K at H102) (antibody)” had a koff of 0.000405 s⁻¹.

“SEQ ID NO: 460 (Y61, R at H102) (antibody)”: the koff is 0.000575 s⁻¹.

With “SEQ ID NO: 462 (Y61, T at H102) (antibody)”, the koff amounted to 0.000333 s⁻¹.

The substance “SEQ ID NO: 463 (Y61, G at H102) (antibody)” showed a koff of 0.000692 s⁻¹.

Consider “SEQ ID NO: 464 (Y61, A at H102) (antibody)”, for which the koff came out at 0.000382 s⁻¹.

For the substance “SEQ ID NO: 465 (Y61, L at H102) (antibody)”, the koff amounted to 0.000956 s⁻¹.

The substance “SEQ ID NO: 466 (Y61, I at H102) (antibody)” displayed a koff of 0.000996 s⁻¹.

Consider “SEQ ID NO: 467 (Y61, P at H102) (antibody)”, for which the koff was determined as 0.00181 s⁻¹.

“SEQ ID NO: 468 (Y61, W at H102) (antibody)” gave a koff of 0.000235 s⁻¹.

For the substance “SEQ ID NO: 469 (Y61, F at H102) (antibody)”, the koff came to 0.000318 s⁻¹.

The substance Y61 with H31S→E (antibody) yielded a koff of 0.000219 s⁻¹.

On to Y61 with L50→Y (antibody), for which the koff came to 0.000174 s⁻¹.

The values above are taken from patent US20120219562A1.
